Laboratory results from patent US7396682B2, “Method for cell adhesion and wound healing” (Regen Biotech, Inc., priority 2000, dated 2008).
“Also recorded” adds a separate entry of the source.

Legend:
HCE cells = test: Divalent cation sensitivity of βig-h3-mediated adhesion; type: cell-based, human; conditions: cells incubated 30 min with divalent cations in HBS
Description: To analyze the divalent cation sensitivity of βig-h3-mediated adhesion, cells were suspended in HEPES-buffered saline (HBS) (150 mM NaCl, 25 mM HEPES, 2 mM EDTA, pH 7.4) at a density of 2×10^5 cells/ml and incubated at 37° C. for 30 min. Then, they were washed twice in HBS and resuspended in the same buffer. Aliquots of cells (50 μl) were then added to the microculture plate wells and incubated for 30 min at 37° C. in a humidified atmosphere of 5% CO2 with 50 μl aliquots of HBS containing divalent cations (MnCl2, MgCl2 or CaCl2) at a concentration twice as large as the final concentration. Subsequently, they were plated on ligand-coated dishes to perform the adhesion assay.

[1] = Expression form and non-denaturing gel electrophoresis of recombinant proteins; type: physicochemical; conditions: electrophoresis using non-denaturing gel
Description: The recombinant proteins containing at least one 4th domain, such as βig3-D-IV, 2X, 3X and 4X were prepared as follows. A DNA fragment encoding to amino acid 498-637 corresponding the 4th domain was obtained by PCR and the PCR products were blunt-ended by Klenow enzyme. This blunt-ended cDNA fragment was inserted to the EcoRV site of the pβig-h3 D-IV, which contained the 4th domain of βig-h3, and the resulting expression vector was named pβI-h3 D-IV 2X. The insert of the pβig-h3 D-IV 2X was excised by digestion with EcoRV and XhoI and blunt-ended by treatment with Klenow, followed by inserting the blunt-ended fragment into EcoRV sites of pβig-h3 D-IV and pβig-h3 D-IV 2X. The resulting expression vectors were named pβig-h3 D-IV 3X and pβig-h3 D-IV 4X. Expression of all recombinant proteins was induced for 3 hours in the presence of 1 mM IPTG and isolated by use of Ni-NTA resin (Qiagen).

[2] = system: Human corneal epithelial (HCE) cells; test: HCE cell adhesion and spreading assay on protein-coated plates; type: cell-based; conditions: HCE cells on coated recombinant protein
Description: Human corneal epithelial (HCE) cells used in this assay were cultured in DMEM ([…], Gibco BRL) supplemented with 15% fetal bovine serum, Gentamicin (40 μg/ml), insulin (5 μg/ml), cholera toxin (0.1 μg/ml) and human epidermal growth factor (hEGF) at 37° C. in 5% CO2.
The cell adhesion assay was performed as follows. First, the recombinant βig-h3 proteins or other extracellular matrix proteins were let to adhere to the bottoms of 96-well microculture plates (Falcon) by incubation at 37° C. for 1 hour and blocked with PBS containing 0.2% BSA. The coated extracellular matrix proteins were human plasma vitronectin (Promega), purified human plasma fibronectin (pFN), chicken collagen types I and II (Chemicon International Inc.), bovine collagen types IV and VI (Chemicon), mouse laminin (Chemicon), and bovine serum albumin (BSA) (Sigma). Cells were trypsinized and suspended in the culture media at a density of 2×10^5 cells/ml. 0.1 ml of the cell suspension was added to each well of the plates coated with the recombinant proteins.
Following incubation at 37° C. for 1 hour, unattached cells were removed by rinsing with PBS. Attached cells were incubated for 1 hour at 37° C. in 50 mM citrate buffer, pH 5.0, containing 3.75 mM p-nitrophenol-N-acetyl 1-β-D-glycosaminide as a hexosaminidase substrate and 0.25% Triton X-100, followed by the addition of 50 mM glycine buffer, pH 10.4, containing 5 mM EDTA to block the enzyme activity. A measurement was made of absorbance at 405 nm in a Multiskan MCC/340 microplate reader.
To determine cell area as an index for cell adhesion activity, 4×10^4 cells were applied to substrates in 48-well culture plates. The attached cells were fixed weith 8% glutaraldehyde (Sigma) and then stained with 0.25% Crystal Violet (Sigma) in 20% methanol. Measurement of cell areas was performed by Image-Pro plus software (Media Cybernetics). Experiments were repeated in triplicate with 200 or 300 measurements per site for each experiment. Data is reported as the mean area at specific time points±standard error of mean.

[3] = system: dermal whole layer wounds on the backs of rats; test: Wound healing with ointment bases on dermal whole layer wounds (2 cm) of rats; type: in vivo, rat; design: key to Formation grade of collagenous fibers at wound: 0: negative; 1+: insignificant; 2+: scatteringly formed; 3+: very dense; key to Re-ephithelialization of Wound (grade): 0: zero was set for the formation of no epithelial layers; 1+ for initiation of epithelialization; 2+ for incomplete epithelial layer structure; 3+ for complete epithelial layer structure; conditions: for wound area: ointment 100 μg/ml, 1 g per day, mean
Description: To compare wound healing activity between the recombinant βig-h3 protein His-β-b, which contains all of the four fas-1 domains, like native βig-h3 protein, and the recombinant βig-h3 protein βigh3-D-IV, which contains the 4th domain alone, ointment bases comprising the recombinant proteins were tested as follows.
Four dermal whole layer wounds, each 2 cm in diameter, were made on the backs of rats and divided into test groups 1-A, 1-B, 1-C and 1-D according to the ointment applied thereto.
1-A: coated at a dose of 1 gm per day with an ointment base combined with no materials.
1-B: coated at a dose of 1 gm per day with an ointment in which fibronectin was combined at a concentration of 100 μg/ml with a base.
1-C: coated at a dose of 1 g per day with an ointment in which Hisβ-b protein was combined at a concentration of 100 μg/ml with a base.
1-D: coated at a dose of 1 g per day with an ointment in which βigh3-D-IV protein was combined at a concentration of 100 μg/ml with a base.
The backs of etherized rats were shaved, followed by sterilizing the shaved region with betadin solution. In test group 1, the back of each rat was cut by use of a No. 15 surgical blade to form four circular wounds with a diameter of 2 cm penetrating the whole dermal layers. Ointments for test groups 1-A, 1-B, 1-C and 1-D were applied at an amount of about 1 g to the wounds which were then covered with a synthetic dressing (Tegaderm® 3M) and lightly bandaged. Application of ointments was performed once every day.
With a base of an aqueous material (SamA base), each of the ointments contained, per 1 g, spermaceti 38 mg, stearyl alcohol 116 mg, polyethylglycol 38 mg, conc. glycerin 192 mg, ethanol 23 mg, […], ethyl paraoxybenzoate 0.87 mg, butyl paraoxybenzoate 0.12 mg, and purified water.
First, morphologies of wounds were observed. The same scale was positioned near each wound and pictures were taken at the same distance from each wound. Pictures were scanned in a computer and used to measure areas of the wounds with the aid of NIH image analysis system (Bio-Optics). To take the pictures, the muscle was completely relaxed by etherizing the rats. Measurements were performed once every other day until the 22nd day. For comparing test groups, the measured values were analyzed according to ANOVA test and Scheffer's test.
Histological analysis was conducted under an optical microscope. Biopsies of wound sites were taken at days 3, 7, 10, 14 and 20, and fixed in 10% formalin and solidified with paraffin. 6 μm slices of the samples were dyed with hematoxylin-eosin (H&E) and Masson's trichrome before observation under a microscope. Wound healing effects according to time of each test material were evaluated through re-epithelialization and formation of collagenous fibers. In the case of re-epithelialization, epithelial formation was semi-quantified in such a way that zero was set for the formation of no epithelial layers, 1+ for initiation of epithelialization, 2+ for incomplete epithelial layer structure, and 3+ for complete epithelial layer structure. Regarding comparison among test groups and differences according to time within each group, measured values were statistically analyzed using ANOVA test and Scheffe's test. As for collagenous fiber formation, it was graded as 1+ for insignificant formation of collagenous fibers as observed with trichrome dye, 2+ for scatteringly spaced collagenous fibers, and 3+ for dense collagenous fibers.

## [Cl][Mn][Cl] [Mn^2+, MnCl2]
HCE cells
  promotion of cell adhesion to βig-h3 by divalent cations: strongly promoted

B1: βig-h3 D-IV: recombinant polypeptide, 4th fas-1 domain of βig-h3, amino acids 498-637 (SEQ ID NO:26) (protein)
chain: LTPPMGTVMDVLKGDNRFSMLVAAIQSAGLTETLNREGVYTVFAPTNEAFRALPPRERSRLLGDAKELANILKYHIGDEILVSGGIGALVRLKSLQGDKLEVSLKNNVVSVNKEPVAEPDIMATNGVVHVITNVLQPPAN
modifications: left off: small tags and cut ends
[1]
  polymer formation: did not form polymers
[2]
  HCE cell adhesion activity: equally active compared to the wild type βig-h3; also recorded: high cell attachment activity
[3]; Day 0
  wound area: 3.15
[3]; Day 2
  wound area: 2.62 cm²
[3]; Day 3
  Formation grade of collagenous fibers at wound: 1+
  Re-ephithelialization of Wound (grade): 0
[3]; Day 4
  wound area: 2.37
[3]; Day 6
  wound area: 1.98
[3]; Day 7
  Re-ephithelialization of Wound (grade): 0
[3]; Day 7, listed as 1-D
  Formation grade of collagenous fibers at wound: +1
[3]; Day 7, listed as βigD-IV
  Formation grade of collagenous fibers at wound: 1+
[3]; Day 8
  wound area: 1.51 cm²
[3]; Day 10
  Formation grade of collagenous fibers at wound: 2+
  Re-ephithelialization of Wound (grade): 1+
  wound area: 0.98 cm²
[3]; Day 12
  wound area: 0.44
[3]; Day 14
  Formation grade of collagenous fibers at wound: 3+
  Re-ephithelialization of Wound (grade): 2+
  wound area: 0.22
[3]; Day 16
  wound area: 0.20
[3]; Day 18
  wound area: 0.18
[3]; Day 20
  Formation grade of collagenous fibers at wound: 3+
  Re-ephithelialization of Wound (grade): 3+
  wound area: 0.13
[3]; Day 22
  wound area: 0.06
[3]; optical microscope
  completion of re-epithelialization: 20 days
